One assay addresses T1, FcγRIIa H (human, UniProt P12318 34-217).
T1 construct: extracellular domain; also called FcγRIIa type H; 2aH
T1 sequence (looked up): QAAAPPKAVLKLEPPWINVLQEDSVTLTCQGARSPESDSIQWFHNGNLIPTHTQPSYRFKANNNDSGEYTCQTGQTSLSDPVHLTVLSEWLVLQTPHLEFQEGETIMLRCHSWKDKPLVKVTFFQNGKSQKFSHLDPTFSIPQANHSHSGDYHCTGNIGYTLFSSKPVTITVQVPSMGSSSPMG
In words: SPR (Biacore), relative binding vs GpH7-A5/GpH7-B3/GpL16-k0. The method, then: (§1) The heterodimerized antibodies He Abs in which one of the H chains was introduced with an alteration were assayed for their binding activities to each activating FcγR and inhibitory FcγR according to the method described in Example 4. […] The activating FcγRs in FIGS. 26, 27, 28, and 29 are FcγRIa, FcγRIIa (R), FcγRIIa (H), and FcγRIIIa, respectively.
(§2) Analysis of interaction between objective antibody and the FcγR was carried out using Biacore T100 (GE Healthcare). HBS-EP+ (GE Healthcare) was used as the running buffer, and the measurement temperature was set to 25° C. Chips produced by immobilizing the antigen peptide by the amine coupling method to a Series S Sencor Chip CM5 (GE Healthcare), or alternatively, chips produced by allowing preliminarily biotinylated antigen peptides to interact with and immobilize onto a Series S Sensor Chip SA (certified) (GE Healthcare) were used. Antibodies of interest were captured onto an antigen peptide-immobilized chip, and allowed to interact to each FcγR diluted with running buffer. To regenerate and repeatedly use the chip, the antibodies captured on the chip were washed off by reacting 10 mM glycine-HCl, pH 1.5.

The next assay has as its target T2, FcγRIIb (human, UniProt P31994 43-217).
T2 construct: extracellular domain; also called 2b
T2 sequence (looked up): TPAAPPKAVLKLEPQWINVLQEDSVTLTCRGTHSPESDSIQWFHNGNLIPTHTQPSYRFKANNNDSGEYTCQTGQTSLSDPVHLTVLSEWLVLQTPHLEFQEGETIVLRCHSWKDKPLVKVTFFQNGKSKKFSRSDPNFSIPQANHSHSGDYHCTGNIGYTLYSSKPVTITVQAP
The description is as above. The method, then:
as §1, §2

The next assay has as its target T3, FcγRIa (human, UniProt P12314 16-292).
T3 construct: extracellular domain; also called FcgRI; 1a
In words: SPR, captured antibody; relative to GpH7-A5/GpH7-B3/GpL16-k0.

T3 sequence (P12314 16-292): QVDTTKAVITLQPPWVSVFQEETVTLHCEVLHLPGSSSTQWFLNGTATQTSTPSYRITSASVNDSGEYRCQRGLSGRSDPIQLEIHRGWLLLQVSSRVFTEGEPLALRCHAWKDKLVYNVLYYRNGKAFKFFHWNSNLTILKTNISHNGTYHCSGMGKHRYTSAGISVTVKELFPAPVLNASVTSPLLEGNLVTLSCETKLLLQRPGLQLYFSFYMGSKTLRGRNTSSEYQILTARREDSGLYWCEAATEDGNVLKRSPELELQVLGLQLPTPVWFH

B1: GpH7-A5/GpH7-B3 variant P331_06M/GpL16-k0 (antibody, human IgG1, kappa)
heavy 1: not shown
heavy 2: not shown
light: DIVMTQSPLSLPVTPGEPASISCQASESLVHSNRNTYLHWYLQKPGQSPQLLIYKVSNRFSGVPDRFSGSGSGTDFTLKISRVEAEDVGVYYCSQNTHVPPTFGQGTKVEIERTVAAPSVFIFPPSDEQLKSGTASVVCLLNNFYPREAKVQWKVDNALQSGNSQESVTEQDSKDSTYSLSSTLTLSKADYEKHKVYACEVTHQGLSSPVTKSFNRGEC
notes: heterodimerized IgG1, mutation in one H chain only; also called He Ab
As for B1, the He/Con_2aH with FcγRIIa H is 85.1 % of control He Ab (=100). In the assay with FcγRIIb, the He/Con_2b was 102 % of control He Ab (=100).

B2: GpH7-A5/GpH7-B3 variant P331_03V/GpL16-k0 (antibody, human IgG1, kappa)
heavy 1: not shown
heavy 2: not shown
light: DIVMTQSPLSLPVTPGEPASISCQASESLVHSNRNTYLHWYLQKPGQSPQLLIYKVSNRFSGVPDRFSGSGSGTDFTLKISRVEAEDVGVYYCSQNTHVPPTFGQGTKVEIERTVAAPSVFIFPPSDEQLKSGTASVVCLLNNFYPREAKVQWKVDNALQSGNSQESVTEQDSKDSTYSLSSTLTLSKADYEKHKVYACEVTHQGLSSPVTKSFNRGEC
notes: as for B1
As to B2, the He/Con_2aH in the assay with FcγRIIa H was 82.5 % of control He Ab (=100). The He/Con_2b in the assay with FcγRIIb was 119 % of control He Ab (=100).

B3: GpH7-A5/GpH7-B3 variant P331_10E/GpL16-k0 (antibody, human IgG1, kappa)
heavy 1: not shown
heavy 2: not shown
light: DIVMTQSPLSLPVTPGEPASISCQASESLVHSNRNTYLHWYLQKPGQSPQLLIYKVSNRFSGVPDRFSGSGSGTDFTLKISRVEAEDVGVYYCSQNTHVPPTFGQGTKVEIERTVAAPSVFIFPPSDEQLKSGTASVVCLLNNFYPREAKVQWKVDNALQSGNSQESVTEQDSKDSTYSLSSTLTLSKADYEKHKVYACEVTHQGLSSPVTKSFNRGEC
notes: as for B1
As to B3, the He/Con_2aH with FcγRIIa H is 87.1 % of control He Ab (=100). Also, in the assay with FcγRIIb, the He/Con_2b was 116 % of control He Ab (=100).

B4: GpH7-A5/GpH7-B3 variant N325_09D/GpL16-k0 (antibody, human IgG1, kappa)
heavy 1: not shown
heavy 2: not shown
light: DIVMTQSPLSLPVTPGEPASISCQASESLVHSNRNTYLHWYLQKPGQSPQLLIYKVSNRFSGVPDRFSGSGSGTDFTLKISRVEAEDVGVYYCSQNTHVPPTFGQGTKVEIERTVAAPSVFIFPPSDEQLKSGTASVVCLLNNFYPREAKVQWKVDNALQSGNSQESVTEQDSKDSTYSLSSTLTLSKADYEKHKVYACEVTHQGLSSPVTKSFNRGEC
notes: as for B1
Consider B4, for which, in the assay with FcγRIIa H, the He/Con_2aH was 53.1 % of control He Ab (=100). For the same molecule, in the assay with FcγRIIb, the He/Con_2b is 124 % of control He Ab (=100).

B5: GpH7-A5/GpH7-B3 variant N325_07I/GpL16-k0 (antibody, human IgG1, kappa)
heavy 1: not shown
heavy 2: not shown
light: DIVMTQSPLSLPVTPGEPASISCQASESLVHSNRNTYLHWYLQKPGQSPQLLIYKVSNRFSGVPDRFSGSGSGTDFTLKISRVEAEDVGVYYCSQNTHVPPTFGQGTKVEIERTVAAPSVFIFPPSDEQLKSGTASVVCLLNNFYPREAKVQWKVDNALQSGNSQESVTEQDSKDSTYSLSSTLTLSKADYEKHKVYACEVTHQGLSSPVTKSFNRGEC
notes: as for B1
Take B5: the He/Con_2aH with FcγRIIa H was 38.1 % of control He Ab (=100). Further, the He/Con_2b in the assay with FcγRIIb is 171 % of control He Ab (=100).

B6: GpH7-A5/GpH7-B3 variant (L235_12R)/GpL16-k0 (antibody, human IgG1, kappa)
heavy 1: not shown
heavy 2: not shown
light: DIVMTQSPLSLPVTPGEPASISCQASESLVHSNRNTYLHWYLQKPGQSPQLLIYKVSNRFSGVPDRFSGSGSGTDFTLKISRVEAEDVGVYYCSQNTHVPPTFGQGTKVEIERTVAAPSVFIFPPSDEQLKSGTASVVCLLNNFYPREAKVQWKVDNALQSGNSQESVTEQDSKDSTYSLSSTLTLSKADYEKHKVYACEVTHQGLSSPVTKSFNRGEC
notes: IgG1 heterodimer, mutation in the GpH7-B3 chain only; also called He Ab
On to B6, for which, in the assay with FcγRIa, the He/Con_1a is 78 relative, HeCon Ab = 100.

B7: GpH7-A5/GpH7-B3 variant P331_07I/GpL16-k0 (antibody, human IgG1, kappa)
heavy 1: not shown
heavy 2: not shown
light: DIVMTQSPLSLPVTPGEPASISCQASESLVHSNRNTYLHWYLQKPGQSPQLLIYKVSNRFSGVPDRFSGSGSGTDFTLKISRVEAEDVGVYYCSQNTHVPPTFGQGTKVEIERTVAAPSVFIFPPSDEQLKSGTASVVCLLNNFYPREAKVQWKVDNALQSGNSQESVTEQDSKDSTYSLSSTLTLSKADYEKHKVYACEVTHQGLSSPVTKSFNRGEC
notes: as for B1
As to B7, in the assay with FcγRIIa H, the He/Con_2aH was 77.4 % of control He Ab (=100). Further, the He/Con_2b with FcγRIIb is 114 % of control He Ab (=100).

B8: GpH7-A5/GpH7-B3 variant P331_15Y/GpL16-k0 (antibody, human IgG1, kappa)
heavy 1: not shown
heavy 2: not shown
light: DIVMTQSPLSLPVTPGEPASISCQASESLVHSNRNTYLHWYLQKPGQSPQLLIYKVSNRFSGVPDRFSGSGSGTDFTLKISRVEAEDVGVYYCSQNTHVPPTFGQGTKVEIERTVAAPSVFIFPPSDEQLKSGTASVVCLLNNFYPREAKVQWKVDNALQSGNSQESVTEQDSKDSTYSLSSTLTLSKADYEKHKVYACEVTHQGLSSPVTKSFNRGEC
notes: as for B1
For B8, in the assay with FcγRIIa H, the He/Con_2aH was 86 % of control He Ab (=100). Further, in the assay with FcγRIIb, the He/Con_2b is 114 % of control He Ab (=100).

The record behind these values is patent US20180155451A1 (published 2018).
